# Experimental data taken from US11578136B2, “Compositions and methods for treating cancer” (INNATE PHARMA, priority 2017, dated 2023).
# Positions count from the first letter of the chain named. Entries after “also recorded” stand apart in the source; their conditions may differ.
# Key:
# [1] = molecular target: T1, soluble recombinant human CD39 protein (Homo sapiens, UniProt P49961); test: Inhibition of the enzymatic activity of soluble CD39 (Cell Titer Glo); type: biochemical
# T1 construct: made in house; host or cells: CHO cells
# T1 sequence (P49961 with tags, fused parts or gaps): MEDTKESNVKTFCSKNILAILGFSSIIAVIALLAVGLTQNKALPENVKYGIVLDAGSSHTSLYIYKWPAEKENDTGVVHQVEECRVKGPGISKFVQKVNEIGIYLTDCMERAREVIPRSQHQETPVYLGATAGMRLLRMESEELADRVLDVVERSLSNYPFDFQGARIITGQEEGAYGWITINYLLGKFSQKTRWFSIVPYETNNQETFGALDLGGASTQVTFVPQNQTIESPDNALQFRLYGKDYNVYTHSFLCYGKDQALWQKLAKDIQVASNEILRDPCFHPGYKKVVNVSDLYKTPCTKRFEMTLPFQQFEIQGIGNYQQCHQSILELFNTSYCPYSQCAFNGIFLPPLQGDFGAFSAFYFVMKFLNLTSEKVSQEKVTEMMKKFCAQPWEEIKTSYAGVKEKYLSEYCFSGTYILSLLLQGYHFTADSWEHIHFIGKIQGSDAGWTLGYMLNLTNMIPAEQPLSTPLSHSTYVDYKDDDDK
# Description: The inhibition by antibodies of the enzymatic activity of soluble CD39 protein produced was evaluated using Cell Titer Glo™ (Promega, reference G7571) that allows assessment of ATP hydrolysis through use of a reagent that generates a luminescent signal proportional to the amount of ATP present. In this way, inhibition of the soluble-CD39-meidatd ATP hydrolysis can be assessed. Briefly, dose ranges of anti-CD39 antibodies from 100 μg/ml to 6×10^−3 μg/ml were incubated with 400 ng/ml of soluble recombinant human CD39 protein having the amino acid sequence described in the Methods section (SEQ ID NO: 45), for 1 h at 37° C. 20 μM ATP was added to the plates for 30 additional minutes at 37° C. before addition of CTG (Cell Titer Glo) reagent. Emitted light was quantified using an Enspire™ luminometer after a short incubation period of 5 min in the dark. Anti-CD39 antibody efficacy was determined by comparing emitted light in presence of antibody with ATP alone (maximal light emission) and ATP together with soluble CD39 protein (minimal light emission).
# [2] = molecular target: T2, CD39 mutants transfected in Hek-293T cells (Homo sapiens, UniProt P49961, E143A/N99A/Q96A/R147E); test: Epitope mapping: binding to CD39 mutants by flow cytometry; settings: mutant 5: Q96A, N99A, E143A, R147E; vs wild-type CD39
# T2 construct: expressed in transfected cells; host or cells: HEK-293T cells
# T2 sequence (P49961 1-510 Q96A/N99A/E143A/R147E): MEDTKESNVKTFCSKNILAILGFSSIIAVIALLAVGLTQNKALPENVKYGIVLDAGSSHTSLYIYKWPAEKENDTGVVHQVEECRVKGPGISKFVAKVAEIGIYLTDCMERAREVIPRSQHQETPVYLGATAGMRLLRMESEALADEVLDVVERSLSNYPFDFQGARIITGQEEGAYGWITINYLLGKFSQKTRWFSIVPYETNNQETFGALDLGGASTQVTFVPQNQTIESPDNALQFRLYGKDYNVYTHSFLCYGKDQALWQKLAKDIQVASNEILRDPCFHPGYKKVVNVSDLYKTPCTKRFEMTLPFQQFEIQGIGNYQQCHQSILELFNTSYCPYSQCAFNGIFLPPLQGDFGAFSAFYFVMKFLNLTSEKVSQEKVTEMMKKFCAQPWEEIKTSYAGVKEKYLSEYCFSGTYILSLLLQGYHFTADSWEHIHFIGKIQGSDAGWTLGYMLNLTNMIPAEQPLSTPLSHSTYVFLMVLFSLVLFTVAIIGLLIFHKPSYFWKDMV
# Description: (§1) CD39 mutants were generated by PCR. The sequences amplified were run on agarose gel and purified using the Macherey Nagel PCR Clean-Up Gel Extraction kit (reference 740609). The purified PCR products generated for each mutant were then ligated into an expression vector, with the ClonTech InFusion system. The vectors containing the mutated sequences were prepared as Miniprep and sequenced. After sequencing, the vectors containing the mutated sequences were prepared as Midiprep using the Promega PureYield™ Plasmid Midiprep System. HEK293T cells were grown in DMEM medium (Invitrogen), transfected with vectors using Invitrogen's Lipofectamine 2000 and incubated at 37° C. in a CO2 incubator for 48 hours prior to testing for transgene expression. The targeted amino acid mutations in the table 1 below are shown using numbering of SEQ ID NO: 1.
# (§2) In order to define the epitopes of anti-CD39 antibodies, we designed CD39 mutants defined by substitutions of amino acids exposed at the molecular surface over the surface of CD39. Mutants were transfected in Hek-293T cells, as shown in the table 1, using numbering of SEQ ID NO: 1.
# (§3) Dose-ranges of I-394 (10-2.5-0.625-0.1563-0.0391-0.0098-0.0024-0.0006 μg/ml) are tested on the 20 generated mutants by flow cytometry. […] Mutant 5 contains amino acid substitutions at residues Q96, N99, E143 and R147.
# (§4) Mutants were transfected in Hek-293T cells, as shown in the table 1, using numbering of SEQ ID NO: 1. Dose-ranges of antibodies I-394 were tested on the 20 mutants by flow cytometry. […] Mutant 19 includes substitutions at residues R138, M139 and E142. The core epitope of I-394 thus includes one or more (or all of) residues R138, M139 and E142.
# (§5) Mutants were transfected in Hek-293T cells, as shown in the table 1, using numbering of SEQ ID NO: 1.Dose-ranges of test antibodies (10-2.5-0.625-0.1563-0.0391-0.0098-0.0024-0.0006 μg/ml) are tested on the 20 generated mutants by flow cytometry.
# [3] = molecular target: T3, CD39 mutants transfected in Hek-293T cells (Homo sapiens, UniProt P49961, E142K/M139A/R138A); test: as above; settings: mutant 19: R138A, M139A, E142K; vs wild-type CD39
# T3 construct: expressed in transfected cells; host or cells: HEK-293T cells
# T3 sequence (P49961 1-510 R138A/M139A/E142K): T2 sequence (P49961 1-510 Q96A/N99A/E143A/R147E) with A96Q, A99N, R138A, M139A, E142K, A143E, E147R
# Description: as §1, §2, §3, §4, §5
substance,measurement,setting,value
"I-394: anti-CD39 antibody, VH SEQ ID NO: 6, VL SEQ ID NO: 7; human IgG1 Fc with L234A/L235E/G237A/A330S/P331S","maximum inhibition achieved, soluble CD39",[1],74.9%
same,relative potency of inhibition of soluble CD39 (FIG. 2B),"[1]; ranking among I-394, I-395, I-396",greatest potency
same,inhibition of the enzymatic activity of soluble CD39 protein,"[1]; result in words, 400 ng/ml sCD39, 20 μM ATP",strong inhibition; also recorded: inhibits
same,binding to cells expressing mutant 5 of CD39,[2],strongly reduced binding
same,binding to cells expressing mutant 19 of CD39,[3],complete loss of binding
